This test deals with T1, JNKK2/MKK7 (Homo sapiens, UniProt O14733, Q133P/Q94H).
T1 construct: expressed in transfected cells; host or cells: HEK-293, TNFα-treated or untreated; anti-FLAG immunoprecipitate
T1 sequence (O14733 1-401 Q94H/Q133P limits assumed): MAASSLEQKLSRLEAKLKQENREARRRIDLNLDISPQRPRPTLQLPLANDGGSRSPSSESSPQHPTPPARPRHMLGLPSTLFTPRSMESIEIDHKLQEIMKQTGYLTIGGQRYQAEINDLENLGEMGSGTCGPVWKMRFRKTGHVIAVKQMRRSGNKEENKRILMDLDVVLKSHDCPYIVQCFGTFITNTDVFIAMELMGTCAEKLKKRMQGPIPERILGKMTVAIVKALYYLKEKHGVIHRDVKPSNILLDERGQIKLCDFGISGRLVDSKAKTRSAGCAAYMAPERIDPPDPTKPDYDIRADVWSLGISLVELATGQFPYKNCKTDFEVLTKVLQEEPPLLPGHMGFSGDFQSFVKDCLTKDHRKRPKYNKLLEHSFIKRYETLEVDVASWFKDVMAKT
The test is described as follows: Kinase assay of immunoprecipitated FLAG-JNKK2/MKK7 (GST-JNK1 substrate) pre-incubated with recombinant Gadd45β proteins or peptides. It counts as biochemical. The note with it: for inhibition of JNKK2/MKK7 activity (GST-JNK1 phosphorylation): FLAG-JNKK2 from 293 cells, 10 min pre-incubation with increasing concentrations of recombinant protein. On the procedure:
Next, the functional consequences, in vitro, of the physical interactions of Gadd45β with kinases in the JNK pathway were assessed. Murine and human, full-length Gadd45J3 proteins were purified from E. coli as GST-Gadd45β and His6-tagged Gadd45β (His6 disclosed as SEQ ID NO: 46), respectively, according to standard procedures. Prior to employing these proteins in in vitro assays, purity of all recombinant polypeptides was assured by >98%, by performing Coomassie blue staining of SDS polyacrylamide gels. Then, the ability of these proteins, as well as of control GST and His6-EF3 (His6 disclosed as SEQ ID NO: 46)proteins, to inhibit kinases in the JNK pathways was monitored in vitro. FLAG-tagged JNKK2, JNKK1, MKK3, and ASK1 were immunoprecipitated from transiently transfected 293 cells using anti-FLAG antibodies and pre-incubated for 10 minutes with increasing concentrations of recombinant proteins, prior to the addition of specific kinase substrates (i.e. GST-JNK1 with JNKK1 and JNKK2; GST-p38[…] with MKK3; GST-JNNK1 or GST-JNKK2 with ASK1). […] These findings indicate that, upon binding to Gadd45β, JNKK2 is effectively inactivated.
A question was whether Gadd45β inhibited active MKK7, in vitro. FLAG-MKK7 was immunoprecipitated from TNFα-treated or untreated 293 cells, and kinase assays were performed in the presence of purified His6-Gadd45β (His6 disclosed as SEQ ID NO: 46), GST-Gadd45β, or control proteins (FIG. 28d; see also FIG. 28g). […] Consistent with the in vivo findings (FIG. 27), the inhibitory activity of Gadd45β was specific. […] Indeed, the effects of Gadd45β on MKK7 phosphorylation by TNFα may be due inhibition of the MKK7 ability to auto-phoshorylate and/or to serve as substrate for upstream kinases. Altogether, the findings identify MKK7 as a target of Gadd45β, and of NF-[…]B, in the JNK cascade. Of interest, MKK7 is a selective activator of JNK, and its ablation abolishes JNK activation by TNFα. Thus, blockade of MKK7 is sufficient on its own to explain the effects of Gadd45β on JNK signaling—i.e. its specific and near-complete suppression of this signaling.
Active MKK7 was immunoprecipitated from TNFα-activated 293 cells and MKK7 kinase assays were performed using GST-JNK1 substrates and pure recombinant Gadd45β polypeptides (FIG. 37B; a schematic diagram representing the Gadd45βpolypeptides used is shown in FIG. 37A). […] MKK7 kinase assays were performed as in FIG. 37B, except that pure synthetic Gadd45, peptides (whose sequences are shown in FIG. 37C) were used instead of pure recombinant Gadd45β proteins. The amino acid region between amino acids 58 and 77 of Gadd45βis used for the Gadd45β-mediated inhibition of MKK7. […]

“Also recorded” adds a separate entry of the source.

B1: GST-Gadd45β: full-length murine Gadd45β directly fused to GST, purified from E. coli (protein)
chain: MTLEELVASDNAVQKMQAVTAAVEQLLVAAQRQDRLTVGVYEAAKLMNVDPDSVVLCLLAIDEEEEDDIALQIHFTLIQSFCCDNDIDIVRVSGMQRLAQLLGEPAETLGTTEARDLHCLLVTNCHTDSWKSQGLVEVASYCEESRGNNQWVPYISLEER
modifications: left off: a dimerising Fc or GST
notes: full-length murine Gadd45β directly fused to GST, purified from E. coli
As for B1, the “inhibition of JNKK2/MKK7 activity (GST-JNK1 phosphorylation)” value was “blocked GST-JNK1 phosphorylation by MKK7, in a dose-dependent manner; also recorded: effectively suppressed”.

B2: Gadd45β: purified recombinant His6-tagged Gadd45β protein; also used generically for the recombinant Gadd45β proteins (protein, UniProt O75293 1-160, looked up)
Growth arrest and DNA …: MTLEELVACDNAAQKMQTVTAAVEELLVAAQRQDRLTVGVYESAKLMNVDPDSVVLCLLAIDEEEEDDIALQIHFTLIQSFCCDNDINIVRVSGMQRLAQLLGEPAETQGTTEARDLHCLLVTNPHTDAWKSHGLVEVASYCEESRGNNQWVPYISLQER
modifications: His6 tag
notes: purified recombinant His6-tagged Gadd45β protein; also used generically for the recombinant Gadd45β proteins
On to B2, for which the JNKK2 auto-phosphorylation entry (in vitro) is reported as “inhibited”.

B3: His6-Gadd45β: human full-length Gadd45β purified from E. coli as His6-tagged protein (protein, UniProt O75293 1-160, looked up)
chain: B2 Growth arrest and DNA …
modifications: full-length His6 tag
notes: human full-length Gadd45β purified from E. coli as His6-tagged protein
In the case of B3, the “inhibition of JNKK2/MKK7 activity (GST-JNK1 phosphorylation)” value was “blocked GST-JNK1 phosphorylation by MKK7, in a dose-dependent manner; also recorded: effectively suppressed”.
